Results reported in publication PMC4632850 (Protein Science : A Publication of the Protein Society, 2015).
One block for each binder: values may come before it.

Columns and labels:
[1] = target: the molecule itself
[2] = target: T1, phosphorylated neutral trehalase Nth1 (pNth1) (Saccharomyces cerevisiae, UniProt P32356 1-751, phosphorylated (sites not given)); test: SAXS
T1 sequence: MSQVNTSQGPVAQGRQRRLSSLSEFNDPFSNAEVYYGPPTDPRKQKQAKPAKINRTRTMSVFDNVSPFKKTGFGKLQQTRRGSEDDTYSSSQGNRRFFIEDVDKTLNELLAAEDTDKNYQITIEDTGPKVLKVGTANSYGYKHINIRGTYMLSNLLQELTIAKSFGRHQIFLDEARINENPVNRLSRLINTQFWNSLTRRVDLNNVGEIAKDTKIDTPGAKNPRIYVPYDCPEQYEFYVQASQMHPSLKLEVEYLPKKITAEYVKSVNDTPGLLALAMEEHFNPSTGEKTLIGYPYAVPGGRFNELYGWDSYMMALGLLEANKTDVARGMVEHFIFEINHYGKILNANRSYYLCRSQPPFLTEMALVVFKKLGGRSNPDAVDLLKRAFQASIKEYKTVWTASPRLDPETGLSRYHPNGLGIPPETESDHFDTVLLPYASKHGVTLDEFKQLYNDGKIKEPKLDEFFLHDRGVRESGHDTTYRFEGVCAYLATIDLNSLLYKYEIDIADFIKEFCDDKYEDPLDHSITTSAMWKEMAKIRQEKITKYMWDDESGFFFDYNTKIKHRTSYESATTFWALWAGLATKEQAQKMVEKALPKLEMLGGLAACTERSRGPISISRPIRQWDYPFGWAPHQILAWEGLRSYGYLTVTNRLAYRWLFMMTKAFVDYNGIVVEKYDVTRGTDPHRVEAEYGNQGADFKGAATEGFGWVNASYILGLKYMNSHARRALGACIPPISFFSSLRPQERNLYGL

SEC = target: the molecule itself; test: SEC

B1: DNA-binding domain of human FoxP1 (domain or fragment)
chain: AEVRPPFTYASLIRQAILESPEKQLTLNEIYNWFTRMFAYFRRNAATWKNAVRHNLSLHKCFVRVENVKGAVWTVDEVEFQKRRPQKISGNPSL
dH (dimer dissociation, van't Hoff) [1]: 23.1 kcal•mol‐1

binding result [2]: binds
B2: yeast 14-3-3 protein Bmh1 (natural protein)
chain: MSTSREDSVYLAKLAEQAERYEEMVENMKTVASSGQELSVEERNLLSVAYKNVIGARRASWRIVSSIEQKEESKEKSEHQVELICSYRSKIETELTKISDDILSVLDSHLIPSATTGESKVFYYKMKGDYHRYLAEFSSGDAREKATNASLEAYKTASEIATTELPPTHPIRLGLALNFSVFYYEIQNSPDKACHLAKQAFDDAIAELDTLSEESYKDSTLIMQLLRDNLTLWTSDMSESGQAEDQQQQQQHQQQQPPAAAEGEAPK

B3: human HtrA3 lacking the N-terminal domain (enzyme)
chain: GLHQLSSPRYKFNFIADVVEKIAPAVVHIELFLRHPLFGRNVPLSSGSGFIMSEAGLIITNAHVVSSNSAAPGRQQLKVQLQNGDSYEATIKDIDKKSDIATIKIHPKKKLPVLLLGHSADLRPGEFVVAIGSPFALQNTVTTGIVSTAQREGRELGLRDSDMDYIQTDAIINYGNSGGPLVNLDGEVIGINTLKVTAGISFAIPSDRITRFLTEFQDKQIKDWKKRFIGIRMRTITPSLVDELKASNPDFPEVSSGIYVQEVAPNSPSQRGGIQDGDIIVKVNGRPLVDSSELQEAVLTESPLLLEVRRGNDDLLFSIAPEVVM
stoichiometry N (SEC): 3
